15 molecules from US20240417463A1 (ADAGENE PTE, published 2024) can be followed below.

One may read the IC50 as the midpoint of a concentration-inhibition curve. Low values mean greater potency, high ones weaker potency. The term Kd denotes the constant that tells how readily two partners part at equilibrium. A high value points to lower affinity. By koff is commonly meant a measure of how fast the partners let go of each other. The low end stands for a long-lived complex, the high end for a short-lived complex. One may read the kon as the rate constant with which the complex forms. A higher kon goes with faster complex formation. For orientation: EC50 means the concentration that produces a half-maximal response. High values mean weaker potency, low ones greater potency.

The target in assay [1] is T1, hCD47-ECD/Fc protein (Sinobiological) (human, UniProt Q08722 19-139, biotinylated in the Octet assay, sites not stated).
T1 construct: extracellular domain; Bought protein; also called human CD47-Fc antigen; recombinant hCD47-ECD/Fc; not shown: Fc part of the bought fusion protein
Nature of the assay: competition ELISA vs biotin-hSIRPα-ECD/His on coated hCD47-ECD/Fc, experiment 1.

Assay [2] deals with T1, hCD47-ECD/Fc protein (Sinobiological). In words: BLI (Octet RED96), biotin-hCD47-ECD/Fc on SA sensors, 1:1 model.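 Note: test antibodies as analytes, 300 s association then 300 s dissociation in running buffer, with benchmark reference antibodies run as controls.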 Background: BLI is a label-free optical method that tracks binding on a fibre tip over time.
Method: (§1) The binding affinity between antibodies and human CD47 was measured through Octet® RED96 System (ForteBio). […] After washing, the sensors were dipped into solutions containing test antibodies for 300 seconds to monitor the association phase, and then were dipped into running buffer for 300 seconds to monitor the dissociation phase. The acquired ForteBio data were processed with Data Acquisition software 7.1, and kinetic data were fitted to a 1:1 Langmuir binding model.
Assay [3] shares this target. In words: ELISA, coated hCD47-ECD/Fc. Background: An ELISA detects its analyte on a solid surface through an enzyme-linked reagent.
Method: (§2) After blocking, the plates were washed three times and incubated with test antibodies with serial dilution at 37° C. for 1 hour. Then the plates were washed three times and incubated with HRP-conjugated anti-human Fab secondary antibody (Sigma) at 37° C. for 1 hour. After washing three times, the plates were incubated with TMB substrate for 15 minutes at room temperature. The reaction was stopped by the addition of H2SO4 stop solution. Absorbance at 450 nm was measured by a microplate reader. The data were analyzed by GraphPad Prism 7.0.
Assay [4] shares this target. Nature of the assay: ELISA, coated hCD47-ECD/Fc, second independent measurement.
Method: as §2
Assay [5] has the same target. Nature of the assay: competition ELISA vs biotin-hSIRPα-ECD/His on coated hCD47-ECD/Fc, experiment 2.
Method: The plates were washed three times again and incubated with HRP-conjugated streptavidin at 37° C. for 1 hour. After washing, the plates were incubated with TMB substrate for 15 minutes at room temperature. The reaction was stopped by the addition of H2SO4 stop solution. Absorbance at 450 nm was measured by a microplate reader. The data was analyzed by GraphPad Prism 7.0.
Assay [6] has the same target. Nature of the assay: BLI (Octet RED96), biotin-hCD47-ECD/Fc on SA sensors, 1:1 model, second independent measurement.
Method: as §1

T1 sequence (Q08722 19-139 limits assumed): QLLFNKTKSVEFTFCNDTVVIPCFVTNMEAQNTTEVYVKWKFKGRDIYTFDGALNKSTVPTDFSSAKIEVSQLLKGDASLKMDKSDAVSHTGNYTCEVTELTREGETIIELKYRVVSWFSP

B1: TY25035 (antibody, V domains shown)
VH: EVQLVESGGGLVQPGGSLRLSCAASGYSISSGYHWDWIRQAPGKGLEWLARIYWDGDKRYSPSLKSRLTISRDNSKNTLYLQLNSLRAEDTAVYYCARFSDGFDPWGQGTLVTVSS
VL: EIVLTQSPATLSLSPGERATLSCRASQSVDFVGISFLHWYQQKPGQAPRLLIYDASNRATGIPARFSGSGSGTDFTLTISSLEPEDFAVYYCVQGLQWPHTFGQGTKVEIKR
Turning to B1, the IC50 in assay [1] worked out at 60.6 nM. In assay [2], this molecule yielded a Kd of under 0.001 nM, a koff of under 1e-07 s⁻¹ and a kon of 171000 M⁻¹ s⁻¹. Besides, the concentration giving a half-maximal response (EC50) in assay [3] is 2.55 nM.

B2: TY25036 (antibody, V domains shown)
VH: QVQLVQSGAEVKKPGSSVKVSCKASGYTFTGYAIHWVRQAPGQGLEWIGWISPSSGSTKYAQKFQGRVTITADKSTSTAYMELSSLRSEDTAVYYCARYGYGPVFDYWGQGTLVTVSS
VL: DIQLTQSPSSLSASVGDRVTITCSASSSVTYIYWYQQKPGKAPKLLIYDASNRATGIPSRFSGSGSGTDFTLTISSLQPEDFATYYCQQYTSSPRGFTFGQGTKVEIKR
In assay [1], B2 had an IC50 of over 100 nM. In addition, in assay [2], the Kd was under 0.001 nM, the koff was under 1e-07 s⁻¹ and the on-rate (kon) worked out at 93700 M⁻¹ s⁻¹. Further, in assay [3], the half-maximal effective concentration (EC50) was 1.71 nM.

B3: TY25033 (antibody, V domains shown)
VH: QVQLVQSGAEVKKPGSSVKVSCKASGFTFTSYAIHWVRQAPGQGLEWIGIINPNFGSTNYAQKFQGRVTITADKSTSTAYMELSSLRSEDTAVYYCARYYYGASFDVWGQGTLVTVSS
VL: DIQLTQSPSSLSASVGDRVTITCKSGQSLLHGDVKTYLYWYQQKPGKAPKLLIYDASNRATGIPSRFSGSGSGTDFTLTISSLQPEDFATYYCQQYASWPPGFTFGQGTKVEIKR
In the case of B3, the 50% inhibitory concentration (IC50) in assay [1] was over 100 nM. For the same molecule, in assay [2], the equilibrium dissociation constant (Kd) was under 0.001 nM, the koff was under 1e-07 s⁻¹ and the kon was 58900 M⁻¹ s⁻¹. The molecule further registered a 50% effective concentration (EC50) in assay [3] of 6.11 nM.

B4: TY25029 (antibody, V domains shown)
VH: EVQLVESGGGLVQPGGSLRLSCAASGYTFSNYWIHWVRQAPGKGLEWIGIIYPSSGSTKYAQKFQGRVTISRDNSKNTLYLQLNSLRAEDTAVYYCARDRAPGSSGYYDGFDYWGQGTLVTVSS
VL: DIQLTQSPSSLSASVGDRVTITCRASQSVDFHGISFLHWYQQKPGKAPKLLIYDASSLESGVPSRFSGSGSGTDFTLTISSLQPEDFATYYCHQRSTTPLTFGQGTKVEIKR
Consider B4, for which, in assay [1], the half-inhibitory concentration (IC50) was over 100 nM. In assay [2], the Kd worked out at 1.51 nM, the off-rate constant (koff) came out at 0.000631 s⁻¹ and the kon was determined as 417000 M⁻¹ s⁻¹. The molecule further showed an EC50 in assay [3] of 0.58 nM.

B5: TY25031 (antibody, V domains shown)
VH: EVQLVESGGGLVQPGGSLRLSCAASGYSITSGYHWGWIRQAPGKGLEWIGRIYPSSGSTKYAQKFQGRVTISRDNSKNTLYLQLNSLRAEDTAVYYCARGVRGSYGWFDVWGQGTLVTVSS
VL: DIQLTQSPSSLSASVGDRVTITCSASSRVSYVYWYQQKPGKAPKLLIYAASTLQSGVPSRFSGSGSGTDFTLTISSLQPEDFATYYCQHYVSSPRVYTFGQGTKVEIKR
In turn, B5 yielded an IC50 in assay [1] of 4.55 nM. Also, in assay [2], the affinity, expressed as Kd, was 0.483 nM; the dissociation rate constant (koff) was 8.1e-05 s⁻¹; the kon was 168000 M⁻¹ s⁻¹. The midpoint of the response in assay [4], the EC50, lay at 0.6 nM. In assay [3], this molecule came in with a concentration giving a half-maximal response (EC50) of 0.59 nM.

B6: TY25038 (antibody, V domains shown)
VH: QVQLVQSGAEVKKPGSSVKVSCKASGFTFSRYAIHWVRQAPGQGLEWLGGIIPVFGTANYAQKFQGRVTITADKSTSTAYMELSSLRSEDTAVYYCARQGILGGFAYWGQGTLVTVSS
VL: DIQLTQSPSSLSASVGDRVTITCRASESVDFHGKSFLAWYQQKPGKAPKLLIYAASSLQSGVPSRFSGSGSGTDFTLTISSLQPEDFATYYCQQYLELPFTFGQGTKVEIKR
Molecule B6 displayed a concentration for half-maximal inhibition (IC50) in assay [1] of over 100 nM. In assay [2], this molecule showed a Kd of 4.47 nM, a koff of 0.00111 s⁻¹ and a kon of 249000 M⁻¹ s⁻¹. Also, in assay [3], the 50% effective concentration (EC50) came out at 0.78 nM.

B7: TY21447 (antibody, V domains shown)
VH: EVQLVESGGGLVQPGGSLRLSCAASGFTFSNYAIHWVRQAPGKGLEWVSAISGSGSSTYYADSVKGRFTISRDNSKNTLYLQLNSLRAEDTAVYYCARRGSYGFGAFDYWGQGTLVTVSS
VL: DIQLTQSPSSLSASVGDRVTITCRASQTIGRYLNWYQQKPGKAPKLLIYDASNRATGIPSRFSGSGSGTDFTLTISSLQPEDFATYYCQQRYPWPYTFGQGTKVEIKR
In the case of B7, the IC50 in assay [5] was 3.12 nM. In addition, the midpoint of the response in assay [3], the EC50, lay at 0.33 nM.

B8: TY21449 (antibody, V domains shown)
VH: EVQLVESGGGLVQPGGSLRLSCAASGFTFSGYAIHWVRQAPGKGLEWVSAISGSGSSTYYADSVKGRFTISRDNSKNTLYLQLNSLRAEDTAVYYCARRGSYGFGAFDYWGQGTLVTVSS
VL: DIQLTQSPSSLSASVGDRVTITCRASQTIGRYLNWYQQKPGKAPKLLIYDASNRATGIPSRFSGSGSGTDFTLTISSLQPEDFATYYCQQRYPWPYTFGQGTKVEIKR
B8 registered a 50% inhibitory concentration (IC50) in assay [5] of 3.18 nM.

B9: TY25030 (antibody, V domains shown)
VH: EVQLVESGGGLVQPGGSLRLSCAASGYSITSGYYWSWIRQAPGKGLEWIGEIYHSGNTYYNPSLKSRVTISRDNSKNTLYLQLNSLRAEDTAVYYCARRVPLGAFDYWGQGTLVTVSS
VL: DIQLTQSPSSLSASVGDRVTITCRASQTVISRYLAWYQQKPGKAPKLLIYDASNLETGVPSRFSGSGSGTDFTLTISSLQPEDFATYYCQQYYAWPLTFGQGTKVEIKR
Turning to B9, the IC50 in assay [1] was 21.7 nM. In addition, in assay [2], binding was characterised by a dissociation constant (Kd) of 4.62 nM, the koff turned out to be 0.00166 s⁻¹ and the on-rate constant (kon) was 361000 M⁻¹ s⁻¹. The molecule also gave an EC50 in assay [3] of 2.42 nM.

B10: TY25039 (antibody, V domains shown)
VH: QVQPAQSGAEVKKPGSSVKVSCKASGYSISSGYYWGWIRQAPGQGLEWIGAISYSGSTYYSPSLKSRVTITADKSTSTAYMELSSLRSEDTAVYYCARHYLFAGSTSYDAFDIWGQGTLVTVSS
VL: DIQLTQSPSSLSASVGDRVTITCRASQSVDFYGFSFLAWYQQKPGKAPKLLIYDASNRATGIPSRFSGSGSGTDFTLTISSLQPEDFATYYCQQSYRTPLTFGQGTKVEIKR
Consider B10, for which the IC50 in assay [1] was over 100 nM. In assay [2], this molecule yielded an equilibrium dissociation constant (Kd) of 0.141 nM, an off-rate (koff) of 1.37e-05 s⁻¹ and a kon of 97300 M⁻¹ s⁻¹. This molecule also came in with an EC50 in assay [3] of 3.66 nM.

B11: TY25037 (antibody, V domains shown)
VH: QVQLVQSGAEVKKPGSSVKVSCKASGYSITSGHYWTWIRQAPGQGLEWIGGIIPVFGTPNYAQKFQGRVTITADKSTSTAYMELSSLRSEDTAVYYCASYGYGGAYFDVWGQGTLVTVSS
VL: DIQLTQSPSSLSASVGDRVTITCRASQSVDFHGISFLHWYQQKPGKAPKLLIYDASNRATGIPSRFSGSGSGTDFTLTISSLQPEDFATYYCVQGIQWPWTFGQGTKVEIKR
For B11, the concentration for half-maximal inhibition (IC50) in assay [1] is over 100 nM. In assay [2], this molecule registered a dissociation constant (Kd) of 0.611 nM, an off-rate constant (koff) of 3.42e-05 s⁻¹ and an on-rate (kon) of 56000 M⁻¹ s⁻¹. This molecule also returned an EC50 in assay [3] of 0.95 nM.

B12: TY25041 (antibody, V domains shown)
VH: QVQLVQSGAEVKKPGSSVKVSCKASGYSISSGHHWNWIRQAPGQGLEWIGAISYSGSTYYSPSLKSRVTITADKSTSTAYMELSSLRSEDTAVYYCARQGYYGGEGYAVDYWGQGTLVTVSS
VL: DIQLTQSPSSLSASVGDRVTITCRASQSVDFYGISFLHWYQQKPGKAPKLLIYDASNRATGIPSRFSGSGSGTDFTLTISSLQPEDFATYYCVQATQTPFTFGQGTKVEIKR
As to B12, the 50% inhibitory concentration (IC50) in assay [1] was over 100 nM. In assay [3], this molecule came in with a 50% effective concentration (EC50) of 1.17 nM.

B13: TY25034 (antibody, V domains shown)
VH: EVQLVESGGGLVQPGGSLRLSCAASGYSITSGHYWNWIRQAPGKGLEWIGIISPSGGGTKYAQKFQGRVTISRDNSKNTLYLQLNSLRAEDTAVYYCARGARGYYALDYWGQGTLVTVSS
VL: EIVLTQSPATLSLSPGERATLSCRASQSVRGRLLAWYQQKPGQAPRLLIYAASSLQSGVPARFSGSGSGTDFTLTISSLEPEDFAVYYCAQYLELPYTFGQGTKVEIKR
Molecule B13 yielded a concentration for half-maximal inhibition (IC50) in assay [1] of 3.53 nM. In assay [2], the dissociation constant (Kd) is 0.826 nM, the off-rate constant (koff) is 0.000671 s⁻¹ and the kon is 813000 M⁻¹ s⁻¹. In assay [4], this molecule yielded a half-maximal effective concentration (EC50) of 0.41 nM. Further, in assay [3], the half-maximal effective concentration (EC50) is 0.47 nM. For the same molecule, in assay [6], the Kd was 0.87 nM, the koff turned out to be 0.000704 s⁻¹ and the kon was 809000 M⁻¹ s⁻¹.

B14: TY21451 (antibody, V domains shown)
VH: EVQLVESGGGLVQPGGSLRLSCAASGFTFSDYWIHWVRQAPGKGLEWVSGISGAGGSTYYADSVKGRFTISRDNSKNTLYLQLNSLRAEDTAVYYCARLGDYWGQGTLVTVSS
VL: DIQLTQSPSSLSASVGDRVTITCRASQGISSVLAWYQQKPGKAPKLLIYAASTLQSGVPSRFSGSGSGTDFTLTISSLQPEDFATYYCQQYYSIPFTFGQGTKVEIKR
Take B14: in assay [5], the IC50 was over 100 nM.

B15: TY25040 (antibody, V domains shown)
VH: QVQLVQSGAEVKKPGSSVKVSCKASGFTFSDYGIHWVRQAPGQGLEWIGRIYPSGGSTNYAQKFQGRVTITADKSTSTAYMELSSLRSEDTAVYYCARQRGYGRFAYWGQGTLVTVSS
VL: DIQLTQSPSSLSASVGDRVTITCSASSSVGYVYWYQQKPGKAPKLLIYDASSLESGVPSRFSGSGSGTDFTLTISSLQPEDFATYFCQQYTYAPFTFGQGTKVEIKR
With B15, the 50% inhibitory concentration (IC50) in assay [1] came out at 3.3 nM. Besides, in assay [2], the dissociation constant Kd is 0.474 nM, the off-rate constant (koff) was found to be 0.0002 s⁻¹ and the on-rate constant (kon) is 422000 M⁻¹ s⁻¹. In assay [4], this molecule gave an EC50 of 0.39 nM. The molecule also returned an EC50 in assay [3] of 0.46 nM.
